According to the supplement of paper PMC10724198:
± gives the standard deviation of the averaged measurements.

Tested on: Saccharomyces cerevisiae
Assay: protein stability index of tFT-peptide fusion (C-terminal peptide) (PSI (0-1 scale)); higher = more stable (slower turnover)
Details: genetic background: das1 deletion; temperature: 30 C
Protocol: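 MPS profiling in S. cerevisiae of the tFT-X12 degron library: putative degron peptides plus stable controls, 12 aa, fused to the C-terminus of a sfGFP-mCherry timer. Cells are FACS-sorted into 8 mCherry/sfGFP bins and deep-sequenced. PSI runs from 0 (unstable) to 1 (stable). Backgrounds are wild type, das1Δ and doa10Δ at 30 °C, and wild type, das1Δ, cdc34-1 and cdc53-1 at 37 °C; 2-3 technical replicates each.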
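Note: PSI is a weighted mean of sequencing reads over stability bins, variants kept only with over 10 reads, mCherry proximal and sfGFP distal, peptide attached via GGGS linker.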

Sequence | protein stability index
PIHILTHTYIGR | 0.636 ± 0.025
PILRGRPTPAIL | 0.662 ± 0.018
PLLVVPVPRALY | 0.626 ± 0.011
PLYFSVFSLLFL | 0.489 ± 0.015
PPLLLFLSLAFL | 0.285 ± 0.027
PPPLPPPSPSRP | 0.677 ± 0.02
PPPPPPLPSSFP | 0.645 ± 0.009
PPPYPPPPARSL | 0.673 ± 0.016
PPRPLHPPCRPP | 0.66 ± 0.033
PPSPPLPPPSPF | 0.69 ± 0.0097
PPSPPPPPPSPF | 0.683 ± 0.0043
PRHERPPRDNGH | 0.655 ± 0.011
PRPSPPLPPPSS | 0.643 ± 0.027
PRRVTVPGVPPL | 0.669 ± 0.035
PRSLHVLSRFLP | 0.651 ± 0.017
PSRRLRHFATSP | 0.736 ± 0.037
PTFSPSLPPPRS | 0.678 ± 0.027
PVTAVYFVLYIW | 0.177 ± 0.032
PYLSAPLVATLS | 0.274 ± 0.057
QDQWINTSLELS | 0.676 ± 0.039
QLIDVGLLNCAA | 0.435 ± 0.03
QWTVRNQGVMQR | 0.652 ± 0.012
QYRLMQKKIVNI | 0.647 ± 0.015
RAEASFFLPKVG | 0.668 ± 0.033
RAQQRVKERYIE | 0.669 ± 0.022
RCIRRWPYILKL | 0.615 ± 0.038

Sequence | protein stability index
RCSLFAKQVVSL | 0.451 ± 0.012
RERRISRIPCLS | 0.526 ± 0.018
RFHFAAPPHRPS | 0.679 ± 0.027
RFIYYCVDVFFS | 0.123 ± 0.049
RFLACSIRYLVY | 0.286 ± 0.025
RFRFRRTCLYAT | 0.501 ± 0.028
RGAVRVAWYPVL | 0.64 ± 0.011
RGDCFLVLCVWR | 0.366 ± 0.032
RGGPPPCPLLAA | 0.585 ± 0.012
RGGWVVVLGCVG | 0.482 ± 0.029
RGLWAAIPRKCT | 0.645 ± 0.0061
RGPSQVIVAFFV | 0.522 ± 0.026
RGSLLRWFLAAQ | 0.654 ± 0.034
RGSRLVPRLLRP | 0.648 ± 0.015
RGWWWFVVVLCR | 0.216 ± 0.033
RHIRGLNLIKLI | 0.652 ± 0.025
RHQTDIVTATQK | 0.636 ± 0.036
RHVFLRIKVLNL | 0.52 ± 0.016
RIFRCYSFYVVV | 0.393 ± 0.026
RILFSPSTFYLF | 0.705 ± 0.03
RIRRVMHLYTNN | 0.641 ± 0.027
RISYKTKINELI | 0.607 ± 0.034
RIVLRPPFNSVA | 0.656 ± 0.035
RKKKRNKKKMIM | 0.629 ± 0.019
RLDAPGLSRTEN | 0.647 ± 0.044
RLFYRLSFVYFL | 0.378 ± 0.029

Sequence | protein stability index
RLLLLLTCIIYI | 0.194 ± 0.016
RLPVMFWFVCSF | 0.477 ± 0.026
RLVRILSTILLN | 0.576 ± 0.028
RLVVSRNFYRLC | 0.6318 ± 0.006
RLWLPLSLVLWV | 0.37 ± 0.072
RMCEILGIRHLI | 0.645 ± 0.025
RMCPWVSVRVGV | 0.382 ± 0.036
RPRRARLPNFLA | 0.653 ± 0.022
RPRVAGLMTLVS | 0.543 ± 0.018
RRSRLYKKAGLM | 0.643 ± 0.02
RSIVFRVSRRLN | 0.671 ± 0.023
RTKIKKKIMKNI | 0.667 ± 0.023
RVCCLSFFFVFL | 0.398 ± 0.036
RVCYQIAISLPI | 0.438 ± 0.012
RVDVSVLWNRRS | 0.669 ± 0.0086
RVEPYDLARRVL | 0.665 ± 0.027
RVITRMLLMVIR | 0.353 ± 0.029
RVPCCLSFVPVC | 0.394 ± 0.026
RVSECVSVVGWM | 0.624 ± 0.019
RVYLLGLFVRSG | 0.409 ± 0.04
RWCLELLWITSC | 0.355 ± 0.03
RWPLVIRSLIVF | 0.251 ± 0.026
RWRRWCVVLFVV | 0.301 ± 0.025
RYVFAFRRNYFC | 0.636 ± 0.018
RYVVVGACIQVV | 0.302 ± 0.024
SDAIKITFIIHN | 0.59 ± 0.012

Same assay, conditions: genetic background: das1 deletion; temperature: 37 C

Sequence | protein stability index
PIHILTHTYIGR | 0.719 ± 0.013
PILRGRPTPAIL | 0.7426 ± 0.0046
PLLVVPVPRALY | 0.733 ± 0.018
PLYFSVFSLLFL | 0.631 ± 0.025
PPLLLFLSLAFL | 0.449 ± 0.015
PPPLPPPSPSRP | 0.7025 ± 0.0061
PPPPPPLPSSFP | 0.7094 ± 0.0028
PPPYPPPPARSL | 0.6884 ± 0.0056
PPRPLHPPCRPP | 0.6943 ± 0.0015
PPSPPLPPPSPF | 0.742 ± 0.041
PPSPPPPPPSPF | 0.7378 ± 0.0022
PRHERPPRDNGH | 0.73 ± 0.013
PRPSPPLPPPSS | 0.739 ± 0.019
PRRVTVPGVPPL | 0.737 ± 0.014
PRSLHVLSRFLP | 0.763 ± 0.037
PSRRLRHFATSP | 0.6646 ± 0.0047
PTFSPSLPPPRS | 0.703 ± 0.02
PVTAVYFVLYIW | 0.332 ± 0.019
PYLSAPLVATLS | 0.474 ± 0.0082
QDQWINTSLELS | 0.7465 ± 0.0027
QLIDVGLLNCAA | 0.611 ± 0.052
QWTVRNQGVMQR | 0.754 ± 0.016
QYRLMQKKIVNI | 0.718 ± 0.014
RAEASFFLPKVG | 0.732 ± 0.016
RAQQRVKERYIE | 0.7311 ± 0.0059
RCIRRWPYILKL | 0.758 ± 0.059

Sequence | protein stability index
RCSLFAKQVVSL | 0.405 ± 0.0067
RERRISRIPCLS | 0.6867 ± 0.0014
RFHFAAPPHRPS | 0.748 ± 0.0096
RFIYYCVDVFFS | 0.215 ± 0.021
RFLACSIRYLVY | 0.41 ± 0.008
RFRFRRTCLYAT | 0.655 ± 0.013
RGAVRVAWYPVL | 0.7511 ± 0.0011
RGDCFLVLCVWR | 0.563 ± 0.017
RGGPPPCPLLAA | 0.688 ± 0.0092
RGGWVVVLGCVG | 0.6417 ± 0.0043
RGLWAAIPRKCT | 0.754 ± 0.016
RGPSQVIVAFFV | 0.688 ± 0.0083
RGSLLRWFLAAQ | 0.706 ± 0.022
RGSRLVPRLLRP | 0.713 ± 0.0012
RGWWWFVVVLCR | 0.316 ± 0.0084
RHIRGLNLIKLI | 0.69 ± 0.034
RHQTDIVTATQK | 0.717 ± 0.012
RHVFLRIKVLNL | 0.5596 ± 0.0049
RIFRCYSFYVVV | 0.568 ± 0.024
RILFSPSTFYLF | 0.7501 ± 0.0036
RIRRVMHLYTNN | 0.708 ± 0.024
RISYKTKINELI | 0.737 ± 0.01
RIVLRPPFNSVA | 0.7428 ± 0.0017
RKKKRNKKKMIM | 0.706 ± 0.022
RLDAPGLSRTEN | 0.683 ± 0.0075
RLFYRLSFVYFL | 0.514 ± 0.017

Sequence | protein stability index
RLLLLLTCIIYI | 0.276 ± 0.052
RLPVMFWFVCSF | 0.6288 ± 0.0029
RLVRILSTILLN | 0.703 ± 0.052
RLVVSRNFYRLC | 0.7235 ± 0.0012
RLWLPLSLVLWV | 0.505 ± 0.012
RMCEILGIRHLI | 0.748 ± 0.017
RMCPWVSVRVGV | 0.5922 ± 0.0023
RPRRARLPNFLA | 0.705 ± 0.018
RPRVAGLMTLVS | 0.707 ± 0.025
RRSRLYKKAGLM | 0.745 ± 0.011
RSIVFRVSRRLN | 0.726 ± 0.015
RTKIKKKIMKNI | 0.716 ± 0.029
RVCCLSFFFVFL | 0.581 ± 0.014
RVCYQIAISLPI | 0.552 ± 0.013
RVDVSVLWNRRS | 0.744 ± 0.028
RVEPYDLARRVL | 0.759 ± 0.02
RVITRMLLMVIR | 0.512 ± 0.019
RVPCCLSFVPVC | 0.5682 ± 0.0047
RVSECVSVVGWM | 0.737 ± 0.011
RVYLLGLFVRSG | 0.632 ± 0.021
RWCLELLWITSC | 0.5006 ± 0.005
RWPLVIRSLIVF | 0.325 ± 0.019
RWRRWCVVLFVV | 0.456 ± 0.0067
RYVFAFRRNYFC | 0.744 ± 0.0096
RYVVVGACIQVV | 0.48 ± 0.0021
SDAIKITFIIHN | 0.667 ± 0.016
